Legend:
[1] = molecular target: rabbit muscle G-actin, biotinylated (rabbit) (UniProt P68135)
[2] = molecular target: P. falciparum G-actin, biotinylated (P. falciparum 3D7 (endogenous in merozoites)) (UniProt Q8I4X0); assay: BLI
[3] = molecular target: P. falciparum F-actin, biotinylated (P. falciparum 3D7 (endogenous in merozoites)) (UniProt Q8I4X0); assay: BLI

For “PfMTRAP cytoplasmic tail domain peptide (residues 452-498)”, the initial rate of polymerization of 2.5 μM pyrene-labelled rabbit actin with 50 μM MTRAP CTD peptide, without aldolase (control without addition 35, bovine serum albumin 34) (fluorescence units min^-1) [1] was 66.

“Plasmodium falciparum aldolase (from UniProt P14223 1-369) (enzyme)” was tested, and the Kd [2] was 0.47 µM and the Kd [3] was 0.37 µM.

For “RH1 cytoplasmic tail domain peptide (residues 2942-2971)”, the initial rate of polymerization of 2.5 μM pyrene-labelled rabbit actin with 50 μM RH1 CTD peptide, without aldolase (control without addition 35, bovine serum albumin 34) (fluorescence units min^-1) [1] was 69.

Source: article PMC4251702
